Where a chain is given by its changes, count along the chain named.
T1: human GLP-2 receptor (hGLP2-R) (human, UniProt O95838 1-553)
T1 sequence (looked up): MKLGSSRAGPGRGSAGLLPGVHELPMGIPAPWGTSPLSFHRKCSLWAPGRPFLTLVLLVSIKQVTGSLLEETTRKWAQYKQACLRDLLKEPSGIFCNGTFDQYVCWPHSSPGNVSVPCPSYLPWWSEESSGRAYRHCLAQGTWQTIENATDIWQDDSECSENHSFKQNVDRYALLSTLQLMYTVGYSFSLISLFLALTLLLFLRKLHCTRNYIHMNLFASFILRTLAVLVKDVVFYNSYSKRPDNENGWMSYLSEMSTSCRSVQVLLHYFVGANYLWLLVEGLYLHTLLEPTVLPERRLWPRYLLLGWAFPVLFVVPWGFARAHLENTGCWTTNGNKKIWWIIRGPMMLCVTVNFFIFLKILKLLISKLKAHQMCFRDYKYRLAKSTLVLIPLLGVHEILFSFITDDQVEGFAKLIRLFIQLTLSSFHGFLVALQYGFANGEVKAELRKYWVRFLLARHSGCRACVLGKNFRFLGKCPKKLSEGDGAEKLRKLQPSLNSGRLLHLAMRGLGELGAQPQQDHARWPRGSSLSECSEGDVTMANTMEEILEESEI

B1: Compound 24 (peptide)
peptide: HXEGSFTSELATILDXQAARDFIAWLIEHKITD
HELM: PEPTIDE1{H.[Aib].E.G.S.F.T.S.E.L.A.T.I.L.D.K.Q.A.A.R.D.F.I.A.W.L.I.E.H.K.I.T.D}|PEPTIDE2{[O=C(O)CCCCCCCCCCCCCCCCC(=O)[*:2]].[gGlu]}$PEPTIDE1,PEPTIDE2,16:R3-2:R2$$$V2.0
SMILES: CC[C@H](C)[C@H](NC(=O)[C@H](Cc1ccccc1)NC(=O)[C@H](CC(=O)O)NC(=O)[C@H](CCCNC(=N)N)NC(=O)[C@H](C)NC(=O)[C@H](C)NC(=O)[C@H](CCC(N)=O)NC(=O)[C@H](CCCCNC(=O)CC[C@H](NC(=O)CCCCCCCCCCCCCCCCC(=O)O)C(=O)O)NC(=O)[C@H](CC(=O)O)NC(=O)[C@H](CC(C)C)NC(=O)[C@@H](NC(=O)[C@@H](NC(=O)[C@H](C)NC(=O)[C@H](CC(C)C)NC(=O)[C@H](CCC(=O)O)NC(=O)[C@H](CO)NC(=O)[C@@H](NC(=O)[C@H](Cc1ccccc1)NC(=O)[C@H](CO)NC(=O)CNC(=O)[C@H](CCC(=O)O)NC(=O)C(C)(C)NC(=O)[C@@H](N)Cc1c[nH]cn1)[C@@H](C)O)[C@@H](C)O)[C@@H](C)CC)C(=O)N[C@@H](C)C(=O)N[C@@H](Cc1c[nH]c2ccccc12)C(=O)N[C@@H](CC(C)C)C(=O)N[C@H](C(=O)N[C@@H](CCC(=O)O)C(=O)N[C@@H](Cc1c[nH]cn1)C(=O)N[C@@H](CCCCN)C(=O)N[C@H](C(=O)N[C@H](C(=O)N[C@@H](CC(=O)O)C(=O)O)[C@@H](C)O)[C@@H](C)CC)[C@@H](C)CC
B2: Compound 27 (peptide)
peptide: B1 peptide with E28Y
HELM: PEPTIDE1{H.[Aib].E.G.S.F.T.S.E.L.A.T.I.L.D.K.Q.A.A.R.D.F.I.A.W.L.I.Y.H.K.I.T.D}|PEPTIDE2{[O=C(O)CCCCCCCCCCCCCCCCC(=O)[*:2]].[gGlu]}$PEPTIDE1,PEPTIDE2,16:R3-2:R2$$$V2.0
SMILES: CC[C@H](C)[C@H](NC(=O)[C@H](Cc1ccccc1)NC(=O)[C@H](CC(=O)O)NC(=O)[C@H](CCCNC(=N)N)NC(=O)[C@H](C)NC(=O)[C@H](C)NC(=O)[C@H](CCC(N)=O)NC(=O)[C@H](CCCCNC(=O)CC[C@H](NC(=O)CCCCCCCCCCCCCCCCC(=O)O)C(=O)O)NC(=O)[C@H](CC(=O)O)NC(=O)[C@H](CC(C)C)NC(=O)[C@@H](NC(=O)[C@@H](NC(=O)[C@H](C)NC(=O)[C@H](CC(C)C)NC(=O)[C@H](CCC(=O)O)NC(=O)[C@H](CO)NC(=O)[C@@H](NC(=O)[C@H](Cc1ccccc1)NC(=O)[C@H](CO)NC(=O)CNC(=O)[C@H](CCC(=O)O)NC(=O)C(C)(C)NC(=O)[C@@H](N)Cc1c[nH]cn1)[C@@H](C)O)[C@@H](C)O)[C@@H](C)CC)C(=O)N[C@@H](C)C(=O)N[C@@H](Cc1c[nH]c2ccccc12)C(=O)N[C@@H](CC(C)C)C(=O)N[C@H](C(=O)N[C@@H](Cc1ccc(O)cc1)C(=O)N[C@@H](Cc1c[nH]cn1)C(=O)N[C@@H](CCCCN)C(=O)N[C@H](C(=O)N[C@H](C(=O)N[C@@H](CC(=O)O)C(=O)O)[C@@H](C)O)[C@@H](C)CC)[C@@H](C)CC
B3: Compound 25 (peptide)
peptide: B1 peptide with S5T
HELM: PEPTIDE1{H.[Aib].E.G.T.F.T.S.E.L.A.T.I.L.D.K.Q.A.A.R.D.F.I.A.W.L.I.E.H.K.I.T.D}|PEPTIDE2{[O=C(O)CCCCCCCCCCCCCCCCC(=O)[*:2]].[gGlu]}$PEPTIDE1,PEPTIDE2,16:R3-2:R2$$$V2.0
SMILES: CC[C@H](C)[C@H](NC(=O)[C@H](Cc1ccccc1)NC(=O)[C@H](CC(=O)O)NC(=O)[C@H](CCCNC(=N)N)NC(=O)[C@H](C)NC(=O)[C@H](C)NC(=O)[C@H](CCC(N)=O)NC(=O)[C@H](CCCCNC(=O)CC[C@H](NC(=O)CCCCCCCCCCCCCCCCC(=O)O)C(=O)O)NC(=O)[C@H](CC(=O)O)NC(=O)[C@H](CC(C)C)NC(=O)[C@@H](NC(=O)[C@@H](NC(=O)[C@H](C)NC(=O)[C@H](CC(C)C)NC(=O)[C@H](CCC(=O)O)NC(=O)[C@H](CO)NC(=O)[C@@H](NC(=O)[C@H](Cc1ccccc1)NC(=O)[C@@H](NC(=O)CNC(=O)[C@H](CCC(=O)O)NC(=O)C(C)(C)NC(=O)[C@@H](N)Cc1c[nH]cn1)[C@@H](C)O)[C@@H](C)O)[C@@H](C)O)[C@@H](C)CC)C(=O)N[C@@H](C)C(=O)N[C@@H](Cc1c[nH]c2ccccc12)C(=O)N[C@@H](CC(C)C)C(=O)N[C@H](C(=O)N[C@@H](CCC(=O)O)C(=O)N[C@@H](Cc1c[nH]cn1)C(=O)N[C@@H](CCCCN)C(=O)N[C@H](C(=O)N[C@H](C(=O)N[C@@H](CC(=O)O)C(=O)O)[C@@H](C)O)[C@@H](C)CC)[C@@H](C)CC
B4: Compound 26 (peptide)
peptide: B1 peptide with E28H
HELM: PEPTIDE1{H.[Aib].E.G.S.F.T.S.E.L.A.T.I.L.D.K.Q.A.A.R.D.F.I.A.W.L.I.H.H.K.I.T.D}|PEPTIDE2{[O=C(O)CCCCCCCCCCCCCCCCC(=O)[*:2]].[gGlu]}$PEPTIDE1,PEPTIDE2,16:R3-2:R2$$$V2.0
SMILES: CC[C@H](C)[C@H](NC(=O)[C@H](Cc1ccccc1)NC(=O)[C@H](CC(=O)O)NC(=O)[C@H](CCCNC(=N)N)NC(=O)[C@H](C)NC(=O)[C@H](C)NC(=O)[C@H](CCC(N)=O)NC(=O)[C@H](CCCCNC(=O)CC[C@H](NC(=O)CCCCCCCCCCCCCCCCC(=O)O)C(=O)O)NC(=O)[C@H](CC(=O)O)NC(=O)[C@H](CC(C)C)NC(=O)[C@@H](NC(=O)[C@@H](NC(=O)[C@H](C)NC(=O)[C@H](CC(C)C)NC(=O)[C@H](CCC(=O)O)NC(=O)[C@H](CO)NC(=O)[C@@H](NC(=O)[C@H](Cc1ccccc1)NC(=O)[C@H](CO)NC(=O)CNC(=O)[C@H](CCC(=O)O)NC(=O)C(C)(C)NC(=O)[C@@H](N)Cc1c[nH]cn1)[C@@H](C)O)[C@@H](C)O)[C@@H](C)CC)C(=O)N[C@@H](C)C(=O)N[C@@H](Cc1c[nH]c2ccccc12)C(=O)N[C@@H](CC(C)C)C(=O)N[C@H](C(=O)N[C@@H](Cc1c[nH]cn1)C(=O)N[C@@H](Cc1c[nH]cn1)C(=O)N[C@@H](CCCCN)C(=O)N[C@H](C(=O)N[C@H](C(=O)N[C@@H](CC(=O)O)C(=O)O)[C@@H](C)O)[C@@H](C)CC)[C@@H](C)CC
B5: Compound 29 (peptide)
peptide: B1 peptide with E28K
HELM: PEPTIDE1{H.[Aib].E.G.S.F.T.S.E.L.A.T.I.L.D.K.Q.A.A.R.D.F.I.A.W.L.I.K.H.K.I.T.D}|PEPTIDE2{[O=C(O)CCCCCCCCCCCCCCCCC(=O)[*:2]].[gGlu]}$PEPTIDE1,PEPTIDE2,16:R3-2:R2$$$V2.0
SMILES: CC[C@H](C)[C@H](NC(=O)[C@H](Cc1ccccc1)NC(=O)[C@H](CC(=O)O)NC(=O)[C@H](CCCNC(=N)N)NC(=O)[C@H](C)NC(=O)[C@H](C)NC(=O)[C@H](CCC(N)=O)NC(=O)[C@H](CCCCNC(=O)CC[C@H](NC(=O)CCCCCCCCCCCCCCCCC(=O)O)C(=O)O)NC(=O)[C@H](CC(=O)O)NC(=O)[C@H](CC(C)C)NC(=O)[C@@H](NC(=O)[C@@H](NC(=O)[C@H](C)NC(=O)[C@H](CC(C)C)NC(=O)[C@H](CCC(=O)O)NC(=O)[C@H](CO)NC(=O)[C@@H](NC(=O)[C@H](Cc1ccccc1)NC(=O)[C@H](CO)NC(=O)CNC(=O)[C@H](CCC(=O)O)NC(=O)C(C)(C)NC(=O)[C@@H](N)Cc1c[nH]cn1)[C@@H](C)O)[C@@H](C)O)[C@@H](C)CC)C(=O)N[C@@H](C)C(=O)N[C@@H](Cc1c[nH]c2ccccc12)C(=O)N[C@@H](CC(C)C)C(=O)N[C@H](C(=O)N[C@@H](CCCCN)C(=O)N[C@@H](Cc1c[nH]cn1)C(=O)N[C@@H](CCCCN)C(=O)N[C@H](C(=O)N[C@H](C(=O)N[C@@H](CC(=O)O)C(=O)O)[C@@H](C)O)[C@@H](C)CC)[C@@H](C)CC
B6: Compound 28 (peptide)
peptide: B1 peptide with E28L
HELM: PEPTIDE1{H.[Aib].E.G.S.F.T.S.E.L.A.T.I.L.D.K.Q.A.A.R.D.F.I.A.W.L.I.L.H.K.I.T.D}|PEPTIDE2{[O=C(O)CCCCCCCCCCCCCCCCC(=O)[*:2]].[gGlu]}$PEPTIDE1,PEPTIDE2,16:R3-2:R2$$$V2.0
SMILES: CC[C@H](C)[C@H](NC(=O)[C@H](Cc1ccccc1)NC(=O)[C@H](CC(=O)O)NC(=O)[C@H](CCCNC(=N)N)NC(=O)[C@H](C)NC(=O)[C@H](C)NC(=O)[C@H](CCC(N)=O)NC(=O)[C@H](CCCCNC(=O)CC[C@H](NC(=O)CCCCCCCCCCCCCCCCC(=O)O)C(=O)O)NC(=O)[C@H](CC(=O)O)NC(=O)[C@H](CC(C)C)NC(=O)[C@@H](NC(=O)[C@@H](NC(=O)[C@H](C)NC(=O)[C@H](CC(C)C)NC(=O)[C@H](CCC(=O)O)NC(=O)[C@H](CO)NC(=O)[C@@H](NC(=O)[C@H](Cc1ccccc1)NC(=O)[C@H](CO)NC(=O)CNC(=O)[C@H](CCC(=O)O)NC(=O)C(C)(C)NC(=O)[C@@H](N)Cc1c[nH]cn1)[C@@H](C)O)[C@@H](C)O)[C@@H](C)CC)C(=O)N[C@@H](C)C(=O)N[C@@H](Cc1c[nH]c2ccccc12)C(=O)N[C@@H](CC(C)C)C(=O)N[C@H](C(=O)N[C@@H](CC(C)C)C(=O)N[C@@H](Cc1c[nH]cn1)C(=O)N[C@@H](CCCCN)C(=O)N[C@H](C(=O)N[C@H](C(=O)N[C@@H](CC(=O)O)C(=O)O)[C@@H](C)O)[C@@H](C)CC)[C@@H](C)CC

biological target: human glucagon-like peptide 1 receptor (GLP-1 R) (human, UniProt P43220 24-463); experiment: cell-based or functional assay

Row | EC50 GLP-1 (nM); cAMP response [nM] | Binder
1 | 0.21 | B1
2 | 0.45 | B2
3 | 0.094 | B3
4 | 0.29 | B4
5 | 0.31 | B5
6 | 0.36 | B6

biological target: T1, human GLP-2 receptor (hGLP2-R); experiment: cell-based or functional assay

Row | EC50 GLP-2 (nM); cAMP response [nM] | Binder
7 | 0.17 | B1
8 | 1.1 | B2
9 | 0.33 | B3
10 | 0.59 | B4
11 | 0.29 | B5
12 | 0.51 | B6
